Measurements published in article PMC4414177 (2015).

B1: TRAF2 CTD (protein)
chain: DQDKIEALSSKVQQLERSIGLKDLAMADLEQKVLEMEASTYDGVFIWKISDFARKRQEAVAGRIPAIFSPAFYTSRYGYKMCLRIYLNGDGTGRGTHLSLFFVVMKGPNDALLRWPFNQKVTLMLLDQNNREHVIDAFRPDVTSSSFQRPVNDMNIASGCPLFCPVSKMEAKNSYVRDDAIFIKAIVDLTGL
modifications: 1 mM GSH+8 μM MC3181
B2: JNK1α2 (protein)
chain: MSRSKRDNNFYSVEIGDSTFTVLKRYQNLKPIGSGAQGIVCAAYDAILERNVAIKKLSRPFQNQTHAKRAYRELVLMKCVNHKNIIGLLNVFTPQKSLEEFQDVYIVMELMDANLCQVIQMELDHERMSYLLYQMLCGIKHLHSAGIIHRDLKPSNIVVKSDCTLKILDFGLARTAGTSFMMTPYVVTRYYRAPEVILGMGYKENVDLWSVGCIMGEMVCHKILFPGRDYIDQWNKVIEQLGTPCPEFMKKLQPTVRTYVENRPKYAGYSFEKLFPDVLFPADSEHNKLKASQARDLLSKMLVIDASKRISVDEALQHPYINVWYDPSEAEAPPPKIPDKQLDEREHTIEEWKELIYKEVMDLEERTKNGVIRGQPSPLGAAVINGSQHPSSSSSVNDVSSMSTDPTLASDTDSSLEAAAGPLGCCR
modifications: 1 mM GSH
B3: TRAF2 CTD (protein)
chain: B1 chain
modifications: 1 mM GSH
B4: JNK1α2 (protein)
chain: B2 chain
B5: TRAF2 CTD (protein)
chain: B1 chain
B6: JNK1α2 (protein)
chain: B2 chain
modifications: 1 mM GSH+8 μM MC3181

The binders below were run against GSTP1-1 (Homo sapiens, UniProt P09211) (assay: ELISA).

Binder | Kd
B1 | > 10 µM
B2 | 2.2 µM
B3 | 3 µM
B4 | 0.42 µM
B5 | 0.28 µM
B6 | > 5 µM
